The record followed here is US20190338002A1 (Pieris, published 2019).

Residue numbers refer to the chain shown, from its start.

In assay [1] the target is T1, human alpha CGRP (SEQ ID NO: 80) (human, not fully specified).
T1 peptide: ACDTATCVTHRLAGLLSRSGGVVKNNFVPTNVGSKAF
In words: cell-based or functional assay.

The target in assay [2] is T2, human beta CGRP (SEQ ID NO: 81) (human, not fully specified).
T2 peptide: T1 peptide with D3N, V22M, N25S
In words: cell-based or functional assay.

Assay [3] deals with T3, rat alpha CGRP (SEQ ID NO: 82) (rat).
T3 peptide: T1 peptide with A1S, D3N, N25D, K35E
In words: cell-based or functional assay.

The target of assay [4] is T4, rat beta CGRP (SEQ ID NO: 83) (rat, not fully specified).
T4 peptide: T1 peptide with A1S, D3N, N25D
In words: cell-based or functional assay.

Assay [5] deals with T1, human alpha CGRP (SEQ ID NO: 80). Put plainly: SPR, 37 C, mutein captured, CGRP analyte. The protocol: (§1) The Biotin CAPture Kit (GE Healthcare) was used to immobilize biotinylated lipocalin muteins to a chip surface. Muteins were biotinylated using standard NHS chemistry. Undiluted Biotin CAPture Reagent (streptavidin conjugated with ss-DNA oligo) was captured on a Sensor Chip CAP with the pre-immobilized complementary ss-DNA oligo. Thereafter, biotinylated muteins at 1 μg/mL were applied for 300 s at a flow rate of 5 μL/min.
(§2) CGRP species were applied in three concentrations of 30 nM, 3 nM and 0.3 nM at a flow rate of 30 μL/min or in a single concentration of 25 nM per cycle as shown in FIG. 2. The dilutions were injected with association times of 180 s and dissociation times of 5400 sec to obtain ka and kd information. Regeneration of the chip surface was achieved by injecting 6 M Guanidinium-HCl+0.25 M NaOH (120 s) with a flow rate of 10 μL/min. Injection of regeneration solutions was followed by an extra wash step with HBS-EP+(1×; BR-1006-69; GE Healthcare) running buffer and a stabilization period of 120 s.
(§3) The data were double-referenced by subtraction of the corresponding signals measured for the control channel (loaded with Biotin CAPture reagent only) and by subtraction of buffer injections from the binding responses. Association rate constant ka and dissociation rate constant kd for the binding reaction were determined using Biacore T200 Evaluation Software V2.0 for data processing and kinetic fitting. The data were globally fit with 1:1 binding model.

For assay [6], the target named is T2, human beta CGRP (SEQ ID NO: 81). Put plainly: SPR, 37 C, mutein captured, CGRP analyte. The procedure:
as §1, §2, §3

The target of assay [7] is T3, rat alpha CGRP (SEQ ID NO: 82). Put plainly: SPR, 37 C, mutein captured, CGRP analyte. The procedure:
as §1, §2, §3
A general note: In SPR one partner is held on a chip, and binding of the other changes the refractive index at the surface.

In assay [8] the target is T4, rat beta CGRP (SEQ ID NO: 83). Put plainly: SPR, 37 C, mutein captured, CGRP analyte. The procedure: as §1, §2, §3
The target in assay [9] is T1, human alpha CGRP (SEQ ID NO: 80). Put plainly: SPR as in Example 5. The procedure: as §1, §2
Assay [10] deals with T2, human beta CGRP (SEQ ID NO: 81). Put plainly: SPR as in Example 5. The protocol:
as §1, §2

Assay [11] concerns the target T1, human alpha CGRP (SEQ ID NO: 80). Put plainly: cell-based or functional assay.
Assay [12] deals with T2, human beta CGRP (SEQ ID NO: 81). Put plainly: cell-based or functional assay.

B1: lipocalin mutein SEQ ID NO: 19 (designed binder)
chain: QDSTSDLIPAPPLSKVPLQQNFQDNQFHGKWYVVGRAGNDTLREDKDPEKMEATIYELKEDKSYNVTDVGLVQKKCMYVIHTFVPGSQPGEFTLGNIKSYPGVTSALVRVVSTNYNQHAMVFVKLVKQSRELFEITLYGRTKELTSELKENFIRFSKSLGLPENHIVFPVPIDQCIDGSAWSHPQFEK
notes: biotinylated by NHS chemistry for capture in SPR
As a reminder, the Kd is the concentration at which binding is half-saturated. A higher Kd goes with a looser complex. As a reminder, the koff is a measure of how fast the partners let go of each other. The kon is the rate constant with which the complex forms. Read a high kon as faster complex formation. Take B1: the “IC50, CGRP-induced cAMP production, SK-N-MC cells” value worked out at 0.14 nM in assay [1] and 0.21 nM in assay [2]. In addition, the “IC50, CGRP-induced cAMP production, L6 cells” value (“IC50 … L6 cells” for short) stood at 0.07 nM in [3] and 0.17 nM in assay [4]. Also, the Kd in assay [5] amounted to 0.005 nM; in [6], 0.001 nM; in assay [7], 0.024 nM; in assay [8] it was 0.006 nM. The koff in assay [5] is 1.07e-05 s⁻¹; in [6] it was 6.67e-06 s⁻¹; in assay [7] it was 3.02e-05 s⁻¹; in [8] it was 1.21e-05 s⁻¹. Moreover, the on-rate constant (kon) in [5] is 2.26e+06 M⁻¹ s⁻¹; in [6] it was 4.56e+06 M⁻¹ s⁻¹; in [7] it was 1.25e+06 M⁻¹ s⁻¹; in assay [8] it was 2.01e+06 M⁻¹ s⁻¹.

B2: lipocalin mutein SEQ ID NO: 18 (designed binder)
chain: B1 chain with G38A, T41V, E44D, K46N, L71F, I80V, V123F, S129N, I135V
Turning to B2, the “IC50, CGRP-induced cAMP production, SK-N-MC cells” value came to 0.19 nM in assay [1] and 0.29 nM in assay [2]. In addition, the “IC50 … L6 cells” value in assay [3] amounted to 0.06 nM; in assay [4] it was 0.14 nM.

B3: lipocalin mutein SEQ ID NO: 20 (designed binder)
chain: B1 chain with E44K, L71F, S129N
notes: as for B1
Take B3: the “IC50, CGRP-induced cAMP production, SK-N-MC cells” value worked out at 0.14 nM in [1] and 0.17 nM in assay [2]. Besides, the “IC50 … L6 cells” value was determined as 0.08 nM in assay [3] and 0.11 nM in assay [4]. The dissociation constant Kd in assay [5] amounted to 0.012 nM; in [6] it was 0.004 nM; in assay [7], 0.028 nM; in assay [8], 0.013 nM. In addition, the koff came to 1.75e-05 s⁻¹ in assay [5], 7.89e-06 s⁻¹ in [6], 2.41e-05 s⁻¹ in assay [7] and 1.84e-05 s⁻¹ in [8]. Besides, the association rate constant (kon) worked out at 1.45e+06 M⁻¹ s⁻¹ in assay [5], 2.18e+06 M⁻¹ s⁻¹ in [6], 867000 M⁻¹ s⁻¹ in [7] and 1.38e+06 M⁻¹ s⁻¹ in [8].

B4: lipocalin mutein SEQ ID NO: 25 (designed binder)
chain: QDSTSDLIPAPPLSKVPLQQNFQDNQFHGKWYVVGWAGNTLLREDKDPIKMQAKIYELKEDRSYNVTWVYFADKKCNYHIETFVPGSQPGEFTLGTIKSYPGETPILVRVVSTNYNQHAMVFFKGVNQNREIFEIILYGRTKELTNELKENFIRFSKSLGLPENHIVFPVPIDQCIDGSAWSHPQFEK
notes: as for B1
Take B4: the “IC50, CGRP-induced cAMP production, SK-N-MC cells” value in [1] worked out at 0.15 nM; in [2], 0.19 nM. Also, the “IC50 … L6 cells” value in assay [3] was determined as 0.06 nM; in assay [4], 0.16 nM. Also, the equilibrium dissociation constant (Kd) in [5] was 0.006 nM; in [6], 0.005 nM; in assay [7] it was 0.016 nM; in assay [8] it was 0.008 nM. For the same molecule, the koff in assay [5] was 1.65e-05 s⁻¹; in assay [6], 1.01e-05 s⁻¹; in assay [7] it was 2.12e-05 s⁻¹; in [8] it was 1.33e-05 s⁻¹. The kon was determined as 2.68e+06 M⁻¹ s⁻¹ in assay [5], 2.02e+06 M⁻¹ s⁻¹ in [6], 1.3e+06 M⁻¹ s⁻¹ in assay [7] and 1.64e+06 M⁻¹ s⁻¹ in [8].

B5: lipocalin mutein SEQ ID NO: 27 (designed binder)
chain: B4 chain with K54M, R62K, I136V
notes: as for B1
Regarding B5, the equilibrium dissociation constant (Kd) worked out at 0.038 nM in [9]; 0.007 nM in assay [10]; 0.018 nM in [5]; 0.011 nM in [6]; 0.038 nM in [7]; 0.018 nM in assay [8]. The “IC50, CGRP-induced cAMP production, SK-N-MC cells” value was 0.1 nM in assay [1] and 0.12 nM in assay [2]. The “cAMP assay IC50, SK-N-MC cells” value in [11] amounted to 0.1 nM; in [12] it was 0.12 nM. Moreover, the koff was determined as 2.59e-05 s⁻¹ in assay [5], 2.26e-05 s⁻¹ in [6], 3.1e-05 s⁻¹ in assay [7] and 2.64e-05 s⁻¹ in [8]. The kon in assay [5] was 1.43e+06 M⁻¹ s⁻¹; in assay [6], 2.04e+06 M⁻¹ s⁻¹; in [7] it was 807000 M⁻¹ s⁻¹; in assay [8], 1.5e+06 M⁻¹ s⁻¹.

B6: lipocalin mutein SEQ ID NO: 26 (designed binder)
chain: B4 chain with N77R, Y100H
notes: as for B1
On to B6, for which the “IC50, CGRP-induced cAMP production, SK-N-MC cells” value was determined as 0.16 nM in assay [1] and 0.26 nM in assay [2]. The “IC50 … L6 cells” value was found to be 0.05 nM in assay [3] and 0.16 nM in [4]. In addition, the dissociation constant (Kd) in [5] amounted to 0.013 nM; in assay [6], 0.003 nM; in assay [7], 0.015 nM; in assay [8], 0.006 nM. Besides, the koff in assay [5] was 1.99e-05 s⁻¹; in assay [6], 7.6e-06 s⁻¹; in [7], 2.01e-05 s⁻¹; in assay [8], 9.98e-06 s⁻¹. The kon in assay [5] was found to be 1.5e+06 M⁻¹ s⁻¹; in [6], 2.44e+06 M⁻¹ s⁻¹; in assay [7] it was 1.31e+06 M⁻¹ s⁻¹; in assay [8], 1.56e+06 M⁻¹ s⁻¹.

B7: lipocalin mutein SEQ ID NO: 24 (designed binder)
chain: B4 chain with D73E
notes: as for B1
In the case of B7, the “IC50, CGRP-induced cAMP production, SK-N-MC cells” value in assay [1] was 0.12 nM; in assay [2] it was 0.19 nM. In addition, the “IC50 … L6 cells” value in assay [3] is 0.07 nM; in assay [4] it was 0.16 nM. In addition, the dissociation constant Kd in assay [5] was determined as 0.009 nM; in assay [6], 0.004 nM; in assay [7], 0.015 nM; in assay [8], 0.007 nM. Also, the koff in assay [5] was 1.4e-05 s⁻¹; in assay [6], 9.01e-06 s⁻¹; in assay [7], 2.08e-05 s⁻¹; in assay [8], 1.22e-05 s⁻¹. The kon in assay [5] came out at 1.6e+06 M⁻¹ s⁻¹; in assay [6], 2.52e+06 M⁻¹ s⁻¹; in assay [7] it was 1.43e+06 M⁻¹ s⁻¹; in assay [8], 1.69e+06 M⁻¹ s⁻¹.

B8: lipocalin mutein SEQ ID NO: 23 (designed binder)
chain: B4 chain with T96L
notes: as for B1
As to B8, the “IC50, CGRP-induced cAMP production, SK-N-MC cells” value in assay [1] is 0.18 nM; in assay [2] it was 0.2 nM. The “IC50 … L6 cells” value in [3] was 0.07 nM; in assay [4], 0.17 nM. In addition, the Kd is 0.011 nM in assay [5], 0.001 nM in [6], 0.009 nM in [7] and 0.008 nM in [8]. Also, the off-rate constant (koff) was 1.84e-05 s⁻¹ in [5], 4.11e-06 s⁻¹ in assay [6], 1.3e-05 s⁻¹ in [7] and 1.34e-05 s⁻¹ in assay [8]. The kon in [5] worked out at 1.64e+06 M⁻¹ s⁻¹; in [6], 2.84e+06 M⁻¹ s⁻¹; in assay [7] it was 1.39e+06 M⁻¹ s⁻¹; in assay [8], 1.74e+06 M⁻¹ s⁻¹.
